Patent publication US20100303790A1, “USE OF BILIVERDIN REDUCTASE (BVR) AND BVR PEPTIDE FRAGMENTS TO TREAT CORONARY DISORDERS” (UNIVERSITY OF ROCHESTER, priority 2009, published 2010)
Entries after “also recorded” stand apart in the source; their conditions may differ. Where a SMILES comes first, the peptide text is derived from it. The star is where a group is joined. Cbz = O=C(OCc1ccccc1)*

T1: hBVR-derived peptide KKRILHC^281
T1 chain: KKRILHC

T2: hBVR-derived peptide KYCCSRK^296
T2 chain: KYCCSRK


What was measured:
[1] = test system: rat neonatal cardiomyocytes; assay: BVR, HO-2 and HO-1 protein levels in rat neonatal cardiomyocytes (western blot); format: cell-based; conditions: for HO-2 protein level: MG132 50 μg/ml; for effect on isoproterenol-induced BVR protein expression / effect on isoproterenol-induced HO-2 protein expression: 10 μM isoproterenol, western blot
Protocol: Neonatal Rat Cardiomyocytes: Primary cultures of neonatal rat cardiomyocytes were prepared as described previously (Ding et al., “Functional Role of Phosphodiesterase 3 in Cardiomyocyte Apoptosis: Implication in Heart Failure,” Circulation 111:2469-2476 (2005) which is hereby incorporated by reference in its entirety). Briefly, fragmented ventricular tissue from 1-2 day old Sprague-Dawley rats was subjected to multiple rounds of enzymatic digestion with collagenase II (Worthington, Lakewood, N.J.). The cells were then collected by low speed centrifugation at 4° C. Non-myocytes were removed by two rounds of pre-plating the cells on culture dishes. The enriched cardiomyocytes were cultured in DMEM with 10% FBS and 10% horse serum. The day after cell adhesion, 10 μM cytosine 1-β-D-arabinofuranoside (Sigma, St. Louis, Mo.) was added to inhibit the growth of contaminating non-myocytes.
Plasmids and Constructs: Adenovirus for expression of an endogenous PKA inhibitor (PKA251 bp) was prepared as described previously (Ding et al., “Functional Role of Phosphodiesterase 3 in Cardiomyocyte Apoptosis: Implication in Heart Failure,” Circulation 111:2469-2476 (2005), which is hereby incorporated by reference in its entirety). Rat BVR and HO-2 siRNA were designed based on the human sequences (Miralem et al., “Small Interference RNA-Mediated Gene Silencing of Human Biliverdin Reductase, but not that of Heme Oxygenase-1, Attenuates Arsenite-Mediated Induction of the Oxygenase and Increases Apoptosis in 293A Kidney Cells,” J Biol Chem 280:17084-17092 (2005), which is hereby incorporated by reference in its entirety). The BVR targeting site is at nucleotides 94-114, and the HO-2 targeting site is at nucleotides 73-93, downstream of the start codon in each case. Oligonucleotides containing the sequence of a 21 nucleotide small interference RNA were synthesized as follows: BVR siRNA, 5′-GATCCCC ([…]) TTCAAGAG ([…]) TTTTTGGAAA (SEQ ID NO:61) and 5′-AGCTTTTCCAAAAA ([…]) TCTCTTGAA ([…]) GGG (SEQ ID NO:62; HO-2 siRNA, 5′-GATCCCC ([…]) TTCAAGAGA ([…]) TTTTTGGAAA (SEQ ID NO:63) and 3′-AGCTTTTCCAAAAA ([…]) TCTCTTGAA ([…]) GGG (SEQ ID NO:64). Complementary oligonucleotides were annealed, then ligated into pSuper-Retro vector (OligoEngine Co. Seattle, Wash.). E. coli clones containing the desired constructs were identified by restriction analysis and verified by DNA sequencing. The retroviral DNA vectors for generating BVR si-rRNA and […] were transfected into the HEK293A packaging cell line, and the supernatant containing the expressed si-rBVR or si-rHO-2 retrovirus was then titrated in NIH3T3 cells. Retrovirus expressing siRNA was used to infect cells at a multiplicity of infection of 4 plaque-forming units/cell. The plasmid pcDNA-hBVR has previously been described (Lerner-Marmarosh et al., “Human Biliverdin Reductase: A Member of the Insulin Receptor Substrate Family with Serine/Threonine/Tyrosine Kinase Activity,” Proc Natl Acad Sci US A 102:7109-7114 (2005), which is hereby incorporated by reference in its entirety); pcDNA-hHO2 was constructed by cloning the HO-2 open reading frame into pcDNA3. […]

[2] = biological target: T1, hBVR-derived peptide KKRILHC^281
[3] = biological target: T2, hBVR-derived peptide KYCCSRK^296
[4] = test system: rat neonatal cardiomyocytes; assay: Apoptosis of cardiomyocytes (cleaved caspase-3, TUNEL, DNA electrophoresis); format: cell-based; conditions: for DNA fragmentation by electrophoresis of genomic DNA: ISO treatment coupled with siRNA; for number of cardiac apoptotic cells (TUNEL): siRNA followed by isoproterenol, relative to absence of ISO stimulation; for level of cleaved caspase-3 protein: with 10 μM isoproterenol, 24 hours
Protocol: Western Blot Analysis: Cell lysates were prepared by homogenization in RIPA buffer (40 mM Tris-HCl, pH 7.5, 1 mM EDTA, 1 mM DTT, 0.1 mM Na3VO4, 10 μg/ml aprotinin, 5 μg/ml pepstatin, 20 μg/ml leupeptin, 1 mM bezamidine followed by centrifugation at 800×g for 10 minutes at 4° C. (Ding et al., “Functional Role of Phosphodiesterase 3 in Cardiomyocyte Apoptosis: Implication in Heart Failure,” Circulation 111:2469-2476 (2005), which is hereby incorporated by reference in its entirety). Supernatant proteins were resolved by SDS-PAGE and transferred to nitrocellulose. Western blots were examined using antibodies against β-actin (Cell Signaling), BVR (Huang et al., “Detection of 10 Variants of Biliverdin Reductase in Rat Liver by Two-Dimensional Gel Electrophoresis,” J Biol Chem 264:7844-7849 (1989), which is hereby incorporated by reference in its entirety), HO-1, HO-2 (Panahian et al., “Site of Injury-Directed Induction of Heme Oxygenase-1 and -2 in Experimental Spinal Cord Injury Differential Functions in Neuronal Defense Mechanisms?” J Neurochem 76:539-554 (2001), which is hereby incorporated by reference in its entirety), and cleaved caspase-3 (Cell Signaling, Beverly Mass.). The secondary antibody was horseradish peroxidase-conjugated goat anti-rabbit IgG (1:2,000, Bio-Rad).
Analysis of Apoptosis: The terminal deoxyribonucleotide transferase-mediated dUTP nick-end labeling (TUNEL) assay was used to detect in situ DNA fragmentation, using the In Situ Cell Death Detection Kit (Roche) as described previously (Ding et al., “Functional Role of Phosphodiesterase 3 in Cardiomyocyte Apoptosis: Implication in Heart Failure,” Circulation 111:2469-2476 (2005), which are hereby incorporated by reference in their entirety). In addition, the cells were stained for cardiomyocyte-specific sarcomeric α-actinin with the antibody EF-53 to distinguish cardiomyocytes from contaminating fibroblasts; and only EF-53 positive cells were counted. Three independent experiments were performed and an average of 1,000 EF-53 positive cells from random fields were analyzed.
DNA Electrophoresis: Total cellular DNA was isolated from untreated and treated cells by lysis in 10 mM Tris-HCl, pH 7.8; 1 mM, EDTA, 10 mM NaCl, 1% (w/v) SDS and 1 mg/ml proteinase K at 60° C. for 2 hours. The lysate was extracted twice each with phenol-choloroform (1:1, v/v) and chloroform, followed by precipitation with ethanol. The precipitate was collected by centrifugation, washed once in 70% ethanol, and resuspended in TE containing 1 mg/ml RNase at 37° C. for 30 min. DNA was resolved by electrophoresis in 2.0% agarose gels containing ethidium bromide.
It was noted that the level of cleaved caspase-3 protein, a marker for apoptosis, was increased by the inhibition of isoproterenol-induced expression of either BVR or HO-2 using siBVR or si-rHO-2, respectively (FIG. 6A). […] That apoptosis was occurring in cardiomyocytes, per se, was determined by triple staining of the cells with anti-α-actinin antibody to detect cardiomyocytes, TUNEL staining for cells undergoing apoptosis, and DAPI to detect nuclei (FIG. 6C). The merged images in FIG. 6C clearly indicate that the cardiomyocytes are undergoing apoptosis.

Molecule | HO-2 protein level ([1]; BVR gene expression inhibited by si-BVR) | HO-2 protein level ([1]; absence of isoproterenol stimulation) | BVR activity (rate of conversion of biliverdin to bilirubin at pH 6.7, NADH cofactor) in perfused rat heart [2] | BVR activity (rate of conversion of biliverdin to bilirubin at pH 6.7, NADH cofactor) in perfused rat heart [3] | DNA fragmentation by electrophoresis of genomic DNA [4] | number of cardiac apoptotic cells (TUNEL) [4] | level of cleaved caspase-3 protein [4] | effect on isoproterenol-induced BVR protein expression [1] | effect on isoproterenol-induced HO-2 protein expression [1]
CC(C)C[C@@H](C=O)NC(=O)[C@H](CC(C)C)NC(=O)[C@H](CC(C)C)NC(=O)OCc1ccccc1 [MG132] (Cbz-Leu-Leu-Leu-aldehyde) | increased the HO-2 protein levels | increased |  |  |  |  |  |  | 
rat biliverdin reductase (BVR), endogenous in perfused rat heart (protein) AEPKRKFGVVVVGVGRAGSVRLRDLKDPRSAAFLNLIGFVSRRELGSLDEVRQISLEDALRSQEIDVAYICSESSSHEDYIRQFLQAGKHVLVEYPMTLSFAAAQELWELAAQKGRVLHEEHVELLMEEFEFLRREVLGKELLKGSLRFTASPLEEERFGFPAFSGISRLTWLVSLFGELSLISATLEERKEDQYMKMTVQLETQNKGLLSWIEEKGPGLKRNRYVNFQFTSGSLEEVPSVGVNKNIFLKDQDIFVQKLLDQVSAEDLAAEKKRIMHCLGLASDIQKLCHQKK |  |  | peptide KKRILHC^281 blocked the activity of BVR, whether ISO was present or not | Treatment of the heart with peptide KYCCSRK^296 alone increased BVR activity |  |  |  |  | 
si-rHO-2: retrovirus-expressed siRNA against rat HO-2 (SEQ ID NO:63, 64) (nucleic acid, the letters are possibly those of the target site) chain 1: GATCCCCGAAAACCATACCAAAATGGCATTCAAGAGATGCCATTTTGGTATGGTTTTCTTTTTGGAAA chain 2: AGCTTTTCCAAAAAGAAAACCATACCAAAATGGCATCTCTTGAATGCCATTTTGGTATGGTTTTCGGG |  |  |  |  | DNA fragmentation could be detected | increase | increased | no effect | ablated
si-rBVR: retrovirus-expressed siRNA against rat BVR (SEQ ID NO:61, 62) (nucleic acid, the letters are possibly those of the target site) chain 1: GATCCCCTCTGCAGCATTCCTGAACCTGTTCAAGAGACAGGTTCAGGAATGCTGCAGATTTTTGGAAA chain 2: AGCTTTTCCAAAAATCTGCAGCATTCCTGAACCTGTCTCTTGAACAGGTTCAGGAATGCTGCAGAGGG |  |  |  |  | DNA fragmentation could be detected | increase | increased | efficiently blocked | effectively blocked; also recorded: also blocked
